Laboratory results taken from the supplement of paper PMC10567573.

B1: ETS1 (parent)
chain: FSEPSFITESYQTLHPISSEELLS

Variants of: B1
Test: protein stability index of a GFP-peptide fusion (GPS, HEK-293T) (PSI 1-6); higher = more stable
Details: c terminus: a fixed tail appended
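Also: lentivirally expressed fusions sorted by FACS into six bins by GFP to DsRed ratio, PSI derived from sequencing read proportions per bin multiplied by bin number.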

Protein stability index, by site and new letter:
S10: Y 1.74 | C 1.53 | G 1.72 | L 2.52 | M 2.02 | D 2.82 | N 1.99 | I 1.86 | K 2.25 | P 2.62 | V 2.52 | F 1.7
S19: V 1.84 | I 2.13 | N 2.35 | Q 2.21 | R 2.24 | W 2 | A 1.7 | G 1.99 | D 2.31 | P 2.11 | C 1.78 | H 1.94 | Y 1.7 | F 1.88 | T 2.21
T13: E 2.07 | W 2.54 | M 1.28 | V 2.21 | F 1.53 | Q 2.4 | R 1.61 | K 1.93 | H 1.62 | L 1.99 | I 1.93 | S 2.35 | C 1.67 | A 2.16 | D 2.23 | P 2.11
S18: W 1.38 | V 2.13 | D 2.33 | Y 2.24 | M 2 | I 1.83 | H 2.35 | G 1.8 | Q 2.3 | A 1.93 | P 2.08 | F 1.79 | T 1.97
S5: I 1.48 | G 2.09 | R 2.63 | Q 1.75 | C 1.69 | A 2.07 | W 2.11 | K 2.14 | L 1.99 | M 2.37 | V 1.91
I17: S 2.14 | C 1.74 | Q 2.31 | G 1.81 | M 1.78 | K 2.36 | D 2.12 | L 2.45 | A 2.33 | N 2.34 | R 2.59 | W 2.06 | P 2.34
E20: Y 1.72 | G 1.62 | H 2.14 | K 1.82 | D 1.63 | M 2.28 | C 1.8 | L 1.95 | R 2.08 | F 1.77 | T 2.08 | W 1.61 | I 1.78 | N 1.7 | A 1.92
E3: D 1.74 | Y 2.23 | I 1.77 | K 2.05 | S 2.21 | C 1.7 | N 1.87 | L 1.81 | G 2 | T 2.35 | Q 1.7 | P 2.9 | R 2.25 | W 1.5 | F 1.6 | M 1.9
P4: A 2.21 | C 2.2 | F 1.92 | Q 2.81 | I 1.54 | D 3.65 | H 2.54 | L 2.03 | G 2.37 | T 2.65 | W 2.17
L22: N 2.33 | I 2.2 | G 2.03 | Y 2.04 | A 2.04 | P 2.42 | E 2.67 | V 2.31 | M 2 | Q 2.19 | H 2.71 | F 2.01 | D 2.16 | W 1.62
F1: S 4.07 | P 4.23 | L 4.45 | V 4.18 | D 4.47 | G 4.4 | A 4.17 | C 3.52 | E 4.56 | T 4.51 | R 4.2 | K 4.06 | Q 4.43 | N 4.24 | W 3.67
F6: A 4 | H 4.14 | Y 2.74 | V 3.23 | G 3.85 | E 4.53 | W 2.27 | I 3.15 | C 3.36 | T 4.34 | K 3.58 | D 4.8 | Q 4.76 | S 4.2 | P 4.26 | M 3.48
Y11: A 2.21 | L 1.71 | T 2.3 | R 1.82 | I 2.04 | Q 2.57 | K 2.81 | N 2.56 | W 1.34 | E 2.95 | S 2.2 | C 1.67 | G 2.57 | D 2.96 | M 2.02 | V 1.78
S2: E 3.98 | T 1.95 | Y 2.62 | G 2.63 | C 2.38 | M 1.72 | R 2.66 | I 3.17 | Q 1.65 | V 2.42 | L 1.49 | F 2.26
T8: A 2.29 | M 1.78 | E 3.4 | H 2.04 | V 1.36 | R 2.12 | C 2.22 | K 2.32 | S 2.38 | N 2.91 | I 1.98
L14: G 2.19 | H 2.35 | D 2.44 | K 2.19 | W 2.66 | S 2.44 | A 2.08 | V 2.09 | R 2.07 | F 1.74 | Q 2.48 | C 1.93
S24: T 1.99 | I 1.85 | E 2.54 | H 1.91 | F 1.65 | D 2.15 | P 2.04 | A 2.02 | N 1.79 | Q 2.16 | V 1.62 | L 1.69 | M 1.97 | Y 1.79 | G 1.86
P16: H 1.81 | R 1.69 | F 2.08 | E 1.95 | K 1.88 | Y 1.67 | G 2.19 | N 1.89 | V 2.16 | T 1.9 | W 1.17 | S 2.21 | Q 2.13 | C 2.07 | M 1.47 | L 3.29
I7: Q 3.83 | G 2.33 | A 1.59 | K 3.73 | C 2.03 | P 3.09 | D 4.01 | V 2.21 | N 4.24 | H 2.42 | R 3.17 | M 2.31 | Y 2.82 | E 4.03
L23: G 1.98 | H 2.61 | T 2.29 | C 1.97 | M 2.03 | Q 2.59 | A 2.57 | Y 1.78 | P 2.14 | R 2.16 | F 2.38 | W 1.81 | V 2.06 | S 2.07 | I 1.52
E9: N 1.62 | D 1.88 | G 1.88 | C 2.25 | T 1.94 | W 2.06 | V 2.05 | K 1.97 | H 2 | Y 1.77 | A 1.76 | M 2.32
Q12: T 1.59 | C 2.24 | G 1.84 | K 1.85 | V 1.62 | D 2.52 | N 2.26 | R 1.92 | F 1.98 | I 1.58 | M 1.95 | E 2.27 | H 2.05
H15: D 2.48 | G 1.75 | P 2.27 | C 2.17 | A 2.27 | N 1.71 | R 2.82 | E 2.12 | T 2.38 | W 1.67 | S 1.91 | L 1.99 | I 2.03 | M 1.96 | Q 2.29
E21: N 1.85 | R 1.96 | C 1.79 | M 2.1 | A 1.53 | Q 2.06 | V 2.2 | L 1.93 | K 1.84 | P 1.94 | T 2 | S 1.52 | D 1.74 | I 1.81 | G 1.91 | H 2.24
